The values that follow come from publication PMC11480844 (2024).

Sequences and labels used below:
B1: H2-Kb / Ed16-1 (parent complex)
chain 1: GEQVEQRPPHLSVREGDSAVITCTYTDPNSYYFFWYKQEPGASLQLLMKVFSSTEINEGQGFTVLLNKKDKRLSLNLTAAHPGDSAAYFCAVSGSNNRIFFGDGTQLVVKP
chain 2: EAAVTQSPRSKVAVTGGKVTLSCHQTNNHDYMYWYRQDTGHGLRLIHYSYVADSTEKGDIPDGYKASRPSQENFSLILELASLSQTAVYFCASRTGTDYTFGSGTRLLVI
chain 3: not shown
chain 4: IQKTPQIQVYSRHPPENGKPNILNCYVTQFHPPHIEIQMLKNGKKIPKVEMSDMSFSKDWSFYILAHTEFTPTETDTYACRVKHDSMAEPKTVYWDRDM
chain 5: SIINFEKL
B2: H2-Kb / Ed10 (parent complex)
chain 1: GEQVEQRPPHLSVREGDSAFIICTYTDSATAYFYWYKQEPGAGLQLLMSVFSNVDRKEEQGLTVLLNKKDKRLSLNLTAAHPGDSAVYFCAVRGTGYQNFYFGKGTSLTVIP
chain 2: AQTIHQWPVAEIKAVGSPLSLGCTIKGKSSPNLYWYWQATGGTLQQLFYSITVGQVESVVQLNLSASRPKDDQFILSTEKLLLSHSGFYLCAWSPGYEQYFGPGTRLTVL
chain 3: not shown
chain 4: B1 chain 4
chain 5: SIINFEKL
Note: test concentration or dose not given here.

Variants of B1 are the subject of the first test. The experiment in a line: % of reporter cells activated (NFAT-GFP), raw.
As for chain 5 S1D, the ratio to parent was 0.0292. Consider chain 5 L8K, for which the ratio to parent amounted to 0.951.

A further test covers variants of B2. The experiment in a line: % of reporter cells activated (NFAT-GFP), raw.
Regarding chain 5 S1P, the ratio to parent is 0.946. Consider chain 5 S1C, for which the ratio to parent was 0.759. For the variant chain 5 S1G, the ratio to parent stood at 0.978. Still for that read-out and setting: for chain 5 S1E the value was 0.888; for chain 5 S1V, 0.913. Regarding chain 5 S1M, the ratio to parent was 1.02. For chain 5 S1K, the ratio to parent was 0.841. Still for that read-out and setting: the figure for chain 5 S1I is 0.814; for chain 5 S1N it is 0.524.

As to chain 5 E6I, the ratio to parent is 0.00258. On the same count and under the same terms, the figure for chain 5 E6Q is 0.19; for chain 5 E6V it is 0.00689. Consider chain 5 E6L, for which the ratio to parent was determined as 0.0597. Still for that read-out and setting: the figure for chain 5 E6T is 0.0117; for chain 5 E6M it is 0.384; for chain 5 L8A it is 0.858. For the variant chain 5 L8M, the ratio to parent amounted to 0.813. On the same count and under the same terms, for chain 5 L8S the value was 0.74; for chain 5 L8N, 0.862; for chain 5 L8P, 0.885. Same read-out and setting: the figure for chain 5 L8W is 0.702; for chain 5 L8V it is 0.721. The same measure, in the same setting: the figure for chain 5 L8H is 0.916. In the case of chain 5 L8E, the ratio to parent came out at 0.721. Take chain 5 L8Y: the ratio to parent turned out to be 0.956. On the same count and under the same terms, for chain 5 N4P the value was 0.551; for chain 5 N4F, 0.0998; for chain 5 N4Q, 0.189.

With chain 5 N4H, the ratio to parent was 0.777. Same read-out and setting: for chain 5 N4I the value was 0.0807; for chain 5 N4S, 0.33; for chain 5 N4E, 0.178. Same read-out and setting: for chain 5 N4R the value was 0.104; for chain 5 N4C, 0.13. Same read-out and setting: the figure for chain 5 N4W is 0.424. With chain 5 N4M, the ratio to parent stood at 0.127. Take chain 5 N4D: the ratio to parent stood at 0.847. On to chain 5 N4T, for which the ratio to parent amounted to 0.0278. chain 5 I3M: the ratio to parent is 0.913. The same measure, in the same setting: the figure for chain 5 I3R is 0.631; for chain 5 I3P it is 0.933; for chain 5 I3F it is 0.713. In the case of chain 5 I3W, the ratio to parent was 0.739. Still for that read-out and setting: the figure for chain 5 I3G is 0.724; for chain 5 I3S it is 0.873; for chain 5 I3L it is 0.972. As to chain 5 I3C, the ratio to parent is 0.914. The same measure, in the same setting: for chain 5 F5L the value was 0.925. With chain 5 F5A, the ratio to parent was 0.912. Still for that read-out and setting: for chain 5 F5W the value was 0.659. Regarding chain 5 F5P, the ratio to parent was 0.437. In the case of chain 5 F5C, the ratio to parent was found to be 0.857.

With chain 5 F5D, the ratio to parent came out at 0.897. chain 5 F5K: the ratio to parent was 0.688.

For the variant chain 5 F5T, the ratio to parent is 0.758. Still for that read-out and setting: the figure for chain 5 K7S is 0.744; for chain 5 K7R it is 0.668; for chain 5 K7N it is 0.726. As for chain 5 K7E, the ratio to parent amounted to 0.00697. On the same count and under the same terms, for chain 5 K7H the value was 0.183. On the same count and under the same terms, the figure for chain 5 K7Q is 0.0405. The same measure, in the same setting: the figure for chain 5 K7Y is 0.402; for chain 5 I2N it is 0.841; for chain 5 I2D it is 0.977. For the variant chain 5 I2Q, the ratio to parent was 0.914. The same measure, in the same setting: the figure for chain 5 I2R is 0.712; for chain 5 I2M it is 0.933. Still for that read-out and setting: for chain 5 I2S the value was 0.988; for chain 5 I2F, 0.941; for chain 5 I2L, 0.955. Still for that read-out and setting: the figure for chain 5 I2E is 0.966. For the variant chain 5 I2A, the ratio to parent stood at 1.02. Take chain 5 I2K: the ratio to parent is 0.876.
